{
  "source": "patent US20160010082A1",
  "about": "(University of California, published 2016)",
  "binders": {"B1": {"name": "CPX-3X-3 displaying SApep at the N-terminus (other)", "chain": "GQSGQAECHPQGPPCIEGRKGGQSGQSGDYNKNQYYGITAGPAYRINDWASIYGVVGVGYGKFQTTEYPTYKHDTSDYGFSYGAGLQFNPMENVALDFSYEQSRIRSVDVGTWIAGVGYRFGTKATSTVTGGYAQSDAQGQMNKMGGFNLKYRYEEDNSPLGVIGSFTYTEKSRTAS"}, "B2": {"name": "CPX-3X-4 displaying SApep at the N-terminus (other)", "chain": "GQSGQAECHPQGPPCIEGRKGGQSGQSGDYNKNQYYGITAGPAYRINDWASIYGVVGVGYGKFQTTEYPTYKHDTSDYGFSYGAGLQFNPMENVALDFSYEQSRIRSVDVGTWIAGVGYRFGKKATSTVTGGYAQSDAQGQMNKMGGFNLKYRYEEDNSPLGVIGSFTYTEKSRTAS"}, "B3": {"name": "CPX-4X-1 displaying SApep at the N-terminus (other)", "chain": "GQSGQAECHPQGPPCIEGRKGGQSGQSGDYNKNQYYGITAGPAYRINDWASIYGVVGVGYGKFQTTEYPTYKHDTSDYGFSYGAGLQFNPMENVALDFSYEQSRIRSVDVGTWIAGVGYRFGSKRATSTVTGGYAQSDAQGQMNKMGGFNLKYRYEEDNSPLGVIGSFTYTEKSRTAS"}, "B4": {"name": "CPX-4X-4 displaying SApep at the N-terminus (other)", "chain": "GQSGQAECHPQGPPCIEGRKGGQSGQSGDYNKNQYYGITAGPAYRINDWASIYGVVGVGYGKFQTTEYPTYKHDTSDYGFSYGAGLQFNPMENVALDFSYEQSRIRSVDVGTWIVGVGYRFPRKSATSTVTGGYAQSDAQGQMNKMGGFNLKYRYEEDNSPLGVIGSFTYTEKSRTAS"}, "B5": {"name": "CPX-4X-3 displaying SApep at the N-terminus (other)", "chain": "GQSGQAECHPQGPPCIEGRKGGQSGQSGDYNKNQYYGITAGPAYRINDWASIYGVVGVGYGKFQTTEYPTYKHDTSDYGFSYGAGLQFNPMENVALDFSYEQSRIRSVDVGTWIAGVGYRFSWPNATSTVTGGYAQSDAQGQMNKMGGFNLKYRYEEDNSPLGVIGSFTYTEKSRTAS"}, "B6": {"name": "CPX-4X-2 displaying SApep at the N-terminus (other)", "chain": "GQSGQAECHPQGPPCIEGRKGGQSGQSGDYNKNQYYGITAGPAYRINDWASIYGVVGVGYGKFQTTEYPTYKHDTSDYGFSYGAGLQFNPMENVALDFSYEQSRIRSVDVGTWIAGVGYRFGRQKATSTVTGGYAQSDAQGQMNKMGGFNLKYRYEEDNSPLGVIGSFTYTEKSRTAS"}, "B7": {"name": "CPX with the streptavidin binding peptide fused to the N-terminus (pB33CPX-SApep) (other)", "chain": "GQSGQAECHPQGPPCIEGRKGGQSGQSGDYNKNQYYGITAGPAYRINDWASIYGVVGVGYGKFQTTEYPTYKHDTSDYGFSYGAGLQFNPMENVALDFSYEQSRIRSVDVGTWIAGVGYRFGGSGATSTVTGGYAQSDAQGQMNKMGGFNLKYRYEEDNSPLGVIGSFTYTEKSRTAS", "notes": "also called parent CPX scaffold"}, "B8": {"name": "CPX-6X-1 displaying SApep at the N-terminus (other)", "chain": "GQSGQAECHPQGPPCIEGRKGGQSGQSGDYNKNQYYGITAGPAYRINDWASIYGVVGVGYGKFQTTEYPTYKHDTSDYGFSYGAGLQFNPMENVALDFSYEQSRIRSVDVGTWIAGVGYRFGTKRYHATSTVTGGYAQSDAQGQMNKMGGFNLKYRYEEDNSPLGVIGSFTYTEKSRTAS"}, "B9": {"name": "CPX-6X-4 displaying SApep at the N-terminus (other)", "chain": "GQSGQAECHPQGPPCIEGRKGGQSGQSGDYNKNQYYGITAGPAYRINDWASIYGVVGVGYGKFQTTEYPTYKHDTSDYGFSYGAGLQFNPMENVALDFSYEQSRIRSVDVGTWIASVGYRFGSKQSKATSTVTGGYAQSDAQGQMNKMGGFNLKYRYEEDNSPLGVIGSFTYTEKSRTAS"}, "B10": {"name": "CPX-6X-2 displaying SApep at the N-terminus (other)", "chain": "GQSGQAECHPQGPPCIEGRKGGQSGQSGDYNKNQYYGITAGPAYRINDWASIYGVVGVGYGKFQTTEYPTYKHDTSDYGFSYGAGLQFNPMENVALDFSYEQSRIRSVDVGTWIAGVGYRFGRRHYKATSTVTGGYAQSDAQGQMNKMGGFNLKYRYEEDNSPLGVIGSFTYTEKSRTAS"}, "B11": {"name": "CPX-6X-3 displaying SApep at the N-terminus (other)", "chain": "GQSGQAECHPQGPPCIEGRKGGQSGQSGDYNKNQYYGITAGPAYRINDWASIYGVVGVGYGKFQTTEYPTYKHDTSDYGFSYGAGLQFNPMENVALDFSYEQSRIRSVDVGTWIAGVGYRFGNRRHRATSTVTGGYAQSDAQGQMNKMGGFNLKYRYEEDNSPLGVIGSFTYTEKSRTAS"}, "B12": {"name": "CPX-5X-1 displaying SApep at the N-terminus (other)", "chain": "GQSGQAECHPQGPPCIEGRKGGQSGQSGDYNKNQYYGITAGPAYRINDWASIYGVVGVGYGKFQTTEYPTYKHDTSDYGFSYGAGLQFNPMENVALDFSYEQSRIRSVDVGTWIAGVGYRFGRTRKATSTVTGGYAQSDAQGQMNKMGGFNLKYRYEEDNSPLGVIGSFTYTEKSRTAS"}, "B13": {"name": "CPX-5X-4 displaying SApep at the N-terminus (other)", "chain": "GQSGQAECHPQGPPCIEGRKGGQSGQSGDYNKNQYYGITAGPAYRINDWASIYGVVGVGYGKFQTTEYPTYKHDTSDYGFSYGAGLQFNPMENVALDFSYEQSRIRSVDVGTWIASVGYRFGSQSKATSTVTGGYAQSDAQGQMNKMGGFNLKYRYEEDNSPLGVIGSFTYTEKSRTAS"}, "B14": {"name": "CPX-5X-3 displaying SApep at the N-terminus (other)", "chain": "GQSGQAECHPQGPPCIEGRKGGQSGQSGDYNKNQYYGITAGPAYRINDWASIYGVVGVGYGKFQTTEYPTYKHDTSDYGFSYGAGLQFNPMENVALDFSYEQSRIRSVDVGTWIVGVGYRFGATRRATSTVTGGYAQSDAQGQMNKMGGFNLKYRYEEDNSPLGVIGSFTYTEKSRTAS"}, "B15": {"name": "CPX-5X-2 displaying SApep at the N-terminus (other)", "chain": "GQSGQAECHPQGPPCIEGRKGGQSGQSGDYNKNQYYGITAGPAYRINDWASIYGVVGVGYGKFQTTEYPTYKHDTSDYGFSYGAGLQFNPMENVALDFSYEQSRIRSVDVGTWIAGVGYRFGRKRNATSTVTGGYAQSDAQGQMNKMGGFNLKYRYEEDNSPLGVIGSFTYTEKSRTAS"}, "B16": {"name": "CPX-L2-10 displaying SApep at the N-terminus (other)", "chain": "GQSGQAECHPQGPPCIEGRKGGQSGQSGDYNKNQYYGITAGPAYRINDWASIYGVVGVGYGKFQTTEYPTYKHDTSDYGFSYGAGLQFNPMENVALDFSYEQSRIRSVDVGTWIISVGYRFHRGYHAQRATSTVTGGYAQSDAQGQMNKMGGFNLKYRYEEDNSPLGVIGSFTYTEKSRTAS"}, "B17": {"name": "CPX-L2-3 displaying SApep at the N-terminus (other)", "chain": "GQSGQAECHPQGPPCIEGRKGGQSGQSGDYNKNQYYGITAGPAYRINDWASIYGVVGVGYGKFQTTEYPTYKHDTSDYGFSYGAGLQFNPMENVALDFSYEQSRIRSVDVGTWIISVGYRFGTRGSQATSTVTGGYAQSDAQGQMNKMGGFNLKYRYEEDNSPLGVIGSFTYTEKSRTAS"}, "B18": {"name": "CPX-L2-9 displaying SApep at the N-terminus (other)", "chain": "GQSGQAECHPQGPPCIEGRKGGQSGQSGDYNKNQYYGITAGPAYRINDWASIYGVVGVGYGKFQTTEYPTYKHDTSDYGFSYGAGLQFNPMENVALDFSYEQSRIRSVDVGTWIISVGYRFGPHNSRATSTVTGGYAQSDAQGQMNKMGGFNLKYRYEEDNSPLGVIGSFTYTEKSRTAS"}, "B19": {"name": "CPX-L2-2 displaying SApep at the N-terminus (other)", "chain": "GQSGQAECHPQGPPCIEGRKGGQSGQSGDYNKNQYYGITAGPAYRINDWASIYGVVGVGYGKFQTTEYPTYKHDTSDYGFSYGAGLQFNPMENVALDFSYEQSRIRSVDVGTWIFSVGYRFGRKNSHATSTVTGGYAQSDAQGQMNKMGGFNLKYRYEEDNSPLGVIGSFTYTEKSRTAS"}, "B20": {"name": "CPX-L2-8 displaying SApep at the N-terminus (other)", "chain": "GQSGQAECHPQGPPCIEGRKGGQSGQSGDYNKNQYYGITAGPAYRINDWASIYGVVGVGYGKFQTTEYPTYKHDTSDYGFSYGAGLQFNPMENVALDFSYEQSRIRSVDVGTWIVSVGYRFGPNKSRATSTVTGGYAQSDAQGQMNKMGGFNLKYRYEEDNSPLGVIGSFTYTEKSRTAS"}, "B21": {"name": "CPX-L2-5 displaying SApep at the N-terminus (other)", "chain": "GQSGQAECHPQGPPCIEGRKGGQSGQSGDYNKNQYYGITAGPAYRINDWASIYGVVGVGYGKFQTTEYPTYKHDTSDYGFSYGAGLQFNPMENVALDFSYEQSRIRSVDVGTWIISVGYRFGDRKRRATSTVTGGYAQSDAQGQMNKMGGFNLKYRYEEDNSPLGVIGSFTYTEKSRTAS"}, "B22": {"name": "CPX-L2-6 displaying SApep at the N-terminus (other)", "chain": "GQSGQAECHPQGPPCIEGRKGGQSGQSGDYNKNQYYGITAGPAYRINDWASIYGVVGVGYGKFQTTEYPTYKHDTSDYGFSYGAGLQFNPMENVALDFSYEQSRIRSVDVGTWIVAVGYRFGARGRHATSTVTGGYAQSDAQGQMNKMGGFNLKYRYEEDNSPLGVIGSFTYTEKSRTAS"}, "B23": {"name": "CPX-L2-7 displaying SApep at the N-terminus (other)", "chain": "GQSGQAECHPQGPPCIEGRKGGQSGQSGDYNKNQYYGITAGPAYRINDWASIYGVVGVGYGKFQTTEYPTYKHDTSDYGFSYGAGLQFNPMENVALDFSYEQSRIRSVDVGTWIVSVGYRFGTHNSQATSTVTGGYAQSDAQGQMNKMGGFNLKYRYEEDNSPLGVIGSFTYTEKSRTAS"}, "B24": {"name": "CPX-L2-4 displaying SApep at the N-terminus (other)", "chain": "GQSGQAECHPQGPPCIEGRKGGQSGQSGDYNKNQYYGITAGPAYRINDWASIYGVVGVGYGKFQTTEYPTYKHDTSDYGFSYGAGLQFNPMENVALDFSYEQSRIRSVDVGTWILSVGYRFGHRSHRATSTVTGGYAQSDAQGQMNKMGGFNLKYRYEEDNSPLGVIGSFTYTEKSRTAS"}},
  "data": [
    {"target": "T1, streptavidin-R-phycoerythrin (UniProt P22629 37-163, limits assumed)", "T1 construct": "Bought conjugate; also called SA-PE; fluorescently-conjugated streptavidin probe", "T1 sequence (P22629 37-163 limits assumed)": "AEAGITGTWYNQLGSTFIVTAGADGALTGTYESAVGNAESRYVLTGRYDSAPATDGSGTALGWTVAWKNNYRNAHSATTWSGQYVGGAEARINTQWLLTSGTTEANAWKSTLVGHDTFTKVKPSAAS", "assay": "flow cytometry of E. coli displaying the construct, 100 nM SA-PE; 50 minutes of expression", "units": {"Relative Display level (fold fluorescence above background)": "fold above background"}, "values": [
      {"binder": "B1", "Relative Display level (fold fluorescence above background)": 7.1},
      {"binder": "B2", "Relative Display level (fold fluorescence above background)": 10},
      {"binder": "B3", "Relative Display level (fold fluorescence above background)": 18},
      {"binder": "B4", "Relative Display level (fold fluorescence above background)": 22},
      {"binder": "B5", "Relative Display level (fold fluorescence above background)": 15},
      {"binder": "B6", "Relative Display level (fold fluorescence above background)": 14},
      {"binder": "B7", "Relative Display level (fold fluorescence above background)": 2.3},
      {"binder": "B8", "Relative Display level (fold fluorescence above background)": 35},
      {"binder": "B9", "Relative Display level (fold fluorescence above background)": 38},
      {"binder": "B10", "Relative Display level (fold fluorescence above background)": 28},
      {"binder": "B11", "Relative Display level (fold fluorescence above background)": 24},
      {"binder": "B12", "Relative Display level (fold fluorescence above background)": 24},
      {"binder": "B13", "Relative Display level (fold fluorescence above background)": 36},
      {"binder": "B14", "Relative Display level (fold fluorescence above background)": 32},
      {"binder": "B15", "Relative Display level (fold fluorescence above background)": 22}
    ]},
    {"target": "T1, streptavidin-R-phycoerythrin", "assay": "flow cytometry of E. coli displaying the construct, 100 nM SA-PE; 25 minutes of expression", "units": {"Relative Display level (fold fluorescence above background)": "fold above background"}, "values": [
      {"binder": "B7", "Relative Display level (fold fluorescence above background)": 1.5},
      {"binder": "B16", "Relative Display level (fold fluorescence above background)": 33},
      {"binder": "B17", "Relative Display level (fold fluorescence above background)": 29},
      {"binder": "B18", "Relative Display level (fold fluorescence above background)": 23},
      {"binder": "B19", "Relative Display level (fold fluorescence above background)": 19},
      {"binder": "B20", "Relative Display level (fold fluorescence above background)": 17},
      {"binder": "B21", "Relative Display level (fold fluorescence above background)": 28},
      {"binder": "B22", "Relative Display level (fold fluorescence above background)": 24},
      {"binder": "B23", "Relative Display level (fold fluorescence above background)": 26},
      {"binder": "B24", "Relative Display level (fold fluorescence above background)": 27}
    ]}
  ]
}
